Values of other authors in PMC6005658.

Target: arodyn (1)
Test: radioligand binding

κ opioid receptor, sequence (P34975 whole entry): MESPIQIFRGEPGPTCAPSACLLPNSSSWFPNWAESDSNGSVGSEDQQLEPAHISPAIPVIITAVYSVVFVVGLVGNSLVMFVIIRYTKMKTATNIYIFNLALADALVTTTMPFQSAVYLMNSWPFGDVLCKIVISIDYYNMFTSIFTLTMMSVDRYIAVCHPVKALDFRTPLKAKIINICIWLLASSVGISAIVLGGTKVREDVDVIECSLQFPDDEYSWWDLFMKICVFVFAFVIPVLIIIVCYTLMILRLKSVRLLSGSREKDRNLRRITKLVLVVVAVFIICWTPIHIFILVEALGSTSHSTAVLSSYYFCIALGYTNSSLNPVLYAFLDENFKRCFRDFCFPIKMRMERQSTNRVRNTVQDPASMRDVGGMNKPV
μ opioid receptor, sequence (P33535 whole entry): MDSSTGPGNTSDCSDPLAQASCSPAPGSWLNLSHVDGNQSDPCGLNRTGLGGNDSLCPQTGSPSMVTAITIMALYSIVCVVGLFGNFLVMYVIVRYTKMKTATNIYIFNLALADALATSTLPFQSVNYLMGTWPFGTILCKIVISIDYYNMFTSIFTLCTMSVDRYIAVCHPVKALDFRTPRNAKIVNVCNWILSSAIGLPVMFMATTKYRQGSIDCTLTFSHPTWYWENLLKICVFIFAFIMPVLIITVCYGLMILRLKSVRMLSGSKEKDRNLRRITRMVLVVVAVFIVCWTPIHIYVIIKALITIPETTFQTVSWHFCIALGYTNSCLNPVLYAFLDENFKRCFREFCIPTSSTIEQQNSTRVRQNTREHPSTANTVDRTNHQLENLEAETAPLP

Ki | Substance
10 nM | κ opioid receptor (from UniProt P34975)
1750 nM | μ opioid receptor (from UniProt P33535)
